Results reported in patent publication US8124586 (DYAX, dated 2012).

Assays:
[1] = molecular target: T1, human plasma kallikrein (human, UniProt P03952 20-638); assay: protease inhibition, Ki,app
T1 construct: The active enzyme comes from the zymogen prekallikrein

[2] = molecular target: porcine pancreatic kallikrein (porcine, UniProt P00752 8-246); assay: protease inhibition, Ki,app
[3] = molecular target: human plasma factor XIa (human, UniProt P03951 19-625); assay: protease inhibition, Ki,app
[4] = molecular target: human plasmin (human, UniProt P00747 97-810, limits assumed); assay: protease inhibition, Ki,app
Sequence of human plasmin (P00747 97-810 limits assumed): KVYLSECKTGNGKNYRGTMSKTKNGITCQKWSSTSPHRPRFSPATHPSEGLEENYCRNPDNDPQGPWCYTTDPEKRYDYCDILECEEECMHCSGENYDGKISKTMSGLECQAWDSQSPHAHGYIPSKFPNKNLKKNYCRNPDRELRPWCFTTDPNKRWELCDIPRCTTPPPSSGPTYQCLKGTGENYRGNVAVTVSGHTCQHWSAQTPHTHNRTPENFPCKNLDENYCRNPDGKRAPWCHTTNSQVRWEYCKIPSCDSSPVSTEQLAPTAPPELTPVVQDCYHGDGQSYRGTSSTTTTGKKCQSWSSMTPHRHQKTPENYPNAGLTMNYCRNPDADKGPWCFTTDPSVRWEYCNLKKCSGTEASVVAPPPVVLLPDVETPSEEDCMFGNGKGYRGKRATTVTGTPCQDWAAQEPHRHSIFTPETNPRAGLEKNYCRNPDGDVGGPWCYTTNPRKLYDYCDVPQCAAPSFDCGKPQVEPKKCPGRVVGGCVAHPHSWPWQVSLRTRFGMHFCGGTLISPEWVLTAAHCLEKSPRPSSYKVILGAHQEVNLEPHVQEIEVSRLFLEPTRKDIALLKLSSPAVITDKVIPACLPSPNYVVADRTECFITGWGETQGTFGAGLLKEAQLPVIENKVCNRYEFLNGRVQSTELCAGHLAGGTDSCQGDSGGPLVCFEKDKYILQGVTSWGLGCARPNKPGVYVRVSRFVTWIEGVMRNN

[5] = molecular target: T1, human plasma kallikrein; assay: ratio of Ki,app values, reference aprotinin

T1 sequence (P03952 20-638 limits assumed): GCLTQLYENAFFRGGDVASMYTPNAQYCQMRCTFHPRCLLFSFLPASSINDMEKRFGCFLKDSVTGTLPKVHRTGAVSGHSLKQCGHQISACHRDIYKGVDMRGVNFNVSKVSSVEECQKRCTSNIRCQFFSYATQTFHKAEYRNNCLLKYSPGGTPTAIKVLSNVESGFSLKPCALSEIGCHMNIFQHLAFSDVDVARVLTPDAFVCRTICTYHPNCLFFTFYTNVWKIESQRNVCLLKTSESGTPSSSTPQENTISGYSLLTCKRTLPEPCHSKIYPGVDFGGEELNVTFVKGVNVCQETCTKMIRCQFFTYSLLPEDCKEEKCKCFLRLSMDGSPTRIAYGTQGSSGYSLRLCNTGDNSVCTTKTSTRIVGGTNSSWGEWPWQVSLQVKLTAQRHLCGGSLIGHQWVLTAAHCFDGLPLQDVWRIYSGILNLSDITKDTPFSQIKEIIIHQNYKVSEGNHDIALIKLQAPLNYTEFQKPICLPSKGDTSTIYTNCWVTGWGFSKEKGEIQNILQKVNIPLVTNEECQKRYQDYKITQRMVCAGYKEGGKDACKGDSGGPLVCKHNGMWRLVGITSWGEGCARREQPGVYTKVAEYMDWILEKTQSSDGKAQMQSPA
Sequence of porcine pancreatic kallikrein (P00752 8-246): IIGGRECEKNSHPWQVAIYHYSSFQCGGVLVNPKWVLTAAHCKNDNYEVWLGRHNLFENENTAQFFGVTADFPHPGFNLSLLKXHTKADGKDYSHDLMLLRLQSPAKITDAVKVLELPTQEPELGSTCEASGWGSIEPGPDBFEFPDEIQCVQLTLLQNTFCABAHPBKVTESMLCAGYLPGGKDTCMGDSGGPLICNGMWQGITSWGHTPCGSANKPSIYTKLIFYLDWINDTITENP

B1: PEP-1 KI polypeptide (designed binder)
chain: EAMHSFCAFKADDGPCRAAHPRWFFNIFTRQCEEFIYGGCEGNQNRFESLEECKKMCTRD
notes: Non-naturally occurring Kunitz domain polypeptide from a phage display library; Molecular weight 7,054 Daltons
Ki [1]: 0.044 nM
Ki [2]: 27000 nM
Ki [3]: 10 nM
Ki [4]: 140 nM
fold higher affinity (Ki,app) than aprotinin [5]: 1000 fold
